The results in this text go back to article PMC5704011.

Common to all, as to details: remark: other sources report otherwise
Assay [1] concerns the target T1, human recombinant VEGFR2 (human), P35968.
T1 chain: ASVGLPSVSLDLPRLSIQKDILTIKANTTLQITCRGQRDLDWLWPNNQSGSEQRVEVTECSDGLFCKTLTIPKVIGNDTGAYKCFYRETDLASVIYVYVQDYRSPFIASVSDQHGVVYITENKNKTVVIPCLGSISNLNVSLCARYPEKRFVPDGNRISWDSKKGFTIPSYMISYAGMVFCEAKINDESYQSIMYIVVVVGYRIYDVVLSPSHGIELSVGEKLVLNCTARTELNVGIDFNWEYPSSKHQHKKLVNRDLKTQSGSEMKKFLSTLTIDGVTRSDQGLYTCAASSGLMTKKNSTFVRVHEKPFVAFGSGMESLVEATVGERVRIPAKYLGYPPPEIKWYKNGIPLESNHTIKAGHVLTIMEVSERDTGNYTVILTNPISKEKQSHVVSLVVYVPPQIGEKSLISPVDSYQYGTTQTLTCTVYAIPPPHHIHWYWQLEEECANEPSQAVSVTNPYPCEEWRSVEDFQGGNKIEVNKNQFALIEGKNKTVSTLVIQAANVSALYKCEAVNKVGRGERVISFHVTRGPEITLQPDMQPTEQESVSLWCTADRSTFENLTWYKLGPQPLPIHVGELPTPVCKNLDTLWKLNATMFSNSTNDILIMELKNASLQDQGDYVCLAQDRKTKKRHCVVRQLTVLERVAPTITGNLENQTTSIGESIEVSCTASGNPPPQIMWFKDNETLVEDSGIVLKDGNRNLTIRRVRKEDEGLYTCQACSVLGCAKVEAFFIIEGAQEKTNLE
Kind of assay: SPR; BIAcore 3000, 25 °C, CM5 chip; receptor immobilised by amine coupling (~200-500 R.U.); ligand injected at 10, 20 and 40 nM, 30 uL/min, 10 min dissociation; HBS-EP pH 7.4 (10 mM HEPES, 3 mM EDTA, 150 mM NaCl, 0.005% TWEEN-20); angiopoietin-4 reference cell subtracted; global 1:1 Langmuir fit; χ2-to-Rmax > 1.0 or negative association curves taken as no true interaction. On the technique in general: In SPR one partner is held on a chip, and binding of the other changes the refractive index at the surface.

Assay [2] deals with T2, human recombinant PDGFRβ (human), P09619.
T2 chain: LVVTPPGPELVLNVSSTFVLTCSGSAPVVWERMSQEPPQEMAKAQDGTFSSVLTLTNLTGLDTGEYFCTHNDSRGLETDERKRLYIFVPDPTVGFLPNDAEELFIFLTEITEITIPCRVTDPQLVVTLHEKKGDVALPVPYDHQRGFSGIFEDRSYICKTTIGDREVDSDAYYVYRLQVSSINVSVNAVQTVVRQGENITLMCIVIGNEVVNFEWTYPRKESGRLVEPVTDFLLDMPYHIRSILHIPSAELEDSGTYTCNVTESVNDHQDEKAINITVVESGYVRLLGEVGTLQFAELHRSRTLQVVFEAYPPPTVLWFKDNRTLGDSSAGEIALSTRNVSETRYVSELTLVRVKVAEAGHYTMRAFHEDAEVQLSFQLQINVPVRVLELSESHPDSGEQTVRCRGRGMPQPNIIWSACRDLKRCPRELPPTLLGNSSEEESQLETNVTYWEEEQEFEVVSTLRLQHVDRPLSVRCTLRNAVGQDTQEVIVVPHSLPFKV
Kind of assay: SPR; BIAcore 3000, 25 °C, CM5 chip; receptor immobilised by amine coupling (~200-500 R.U.); ligand injected at 40, 20 and 10 nM in HBS-EP pH 7.4 (10 mM HEPES, 3 mM EDTA, 150 mM NaCl, 0.005% TWEEN-20); angiopoietin-4 reference cell subtracted; global 1:1 Langmuir fit; χ^2-to-Rmax < 1.0 taken as a true interaction.

Assay [3] addresses T1, human recombinant VEGFR2 (human), P35968. The assay is described as above.

B1: human recombinant PDGF-CC, Q9NRA1 23-345 (ligand)
chain: VVDLNLLTEEVRLYSCTPRNFSVSIREELKRTDTIFWPGCLLVKRCGGNCACCLHNCNECQCVPSKVTKKYHEVLQLRPKTGVRGLHKSLTDVALEHHEECDCVCRGSTGG
modifications: here or on the partner: disulfide-linked homodimer; limits not given, active growth factor domain after cleavage at Arg234 taken by convention
The term koff denotes the first-order rate constant of dissociation. By kon is commonly meant a measure of how fast the partners come together. In the case of B1, in assay [1], the dissociation rate constant (koff) stood at 2.6e-05 s⁻¹ and the on-rate (kon) was found to be 36000 M⁻¹ s⁻¹.

B2: human recombinant PDGF-CC, Q9NRA1 235-345 (ligand)
chain: B1 chain
The Kd is a measure of binding affinity in units of concentration. Consider B2, for which the Kd in assay [2] stood at 1.9 nM; in assay [3], 0.07 nM.
